Results as given in article PMC4070431.
pKi: −log10 of the molar value.

How the values were obtained:
[1] = target: human natriuretic peptide receptor-A (NPR-A) (human) (UniProt P16066); experiment: radioligand binding
[2] = target: human natriuretic peptide receptor-C (NPR-C) (human) (UniProt P17342); experiment: radioligand binding
[3] = target: human natriuretic peptide receptor-A (NPR-A) (human) (UniProt P16066)
[4] = target: human natriuretic peptide receptor-B (NPR-B) (human) (UniProt P20594)
[5] = target: non-selective somatostatin receptor (sst)

Chain of human natriuretic peptide receptor-A (NPR-A) (human) (P16066 33-1061): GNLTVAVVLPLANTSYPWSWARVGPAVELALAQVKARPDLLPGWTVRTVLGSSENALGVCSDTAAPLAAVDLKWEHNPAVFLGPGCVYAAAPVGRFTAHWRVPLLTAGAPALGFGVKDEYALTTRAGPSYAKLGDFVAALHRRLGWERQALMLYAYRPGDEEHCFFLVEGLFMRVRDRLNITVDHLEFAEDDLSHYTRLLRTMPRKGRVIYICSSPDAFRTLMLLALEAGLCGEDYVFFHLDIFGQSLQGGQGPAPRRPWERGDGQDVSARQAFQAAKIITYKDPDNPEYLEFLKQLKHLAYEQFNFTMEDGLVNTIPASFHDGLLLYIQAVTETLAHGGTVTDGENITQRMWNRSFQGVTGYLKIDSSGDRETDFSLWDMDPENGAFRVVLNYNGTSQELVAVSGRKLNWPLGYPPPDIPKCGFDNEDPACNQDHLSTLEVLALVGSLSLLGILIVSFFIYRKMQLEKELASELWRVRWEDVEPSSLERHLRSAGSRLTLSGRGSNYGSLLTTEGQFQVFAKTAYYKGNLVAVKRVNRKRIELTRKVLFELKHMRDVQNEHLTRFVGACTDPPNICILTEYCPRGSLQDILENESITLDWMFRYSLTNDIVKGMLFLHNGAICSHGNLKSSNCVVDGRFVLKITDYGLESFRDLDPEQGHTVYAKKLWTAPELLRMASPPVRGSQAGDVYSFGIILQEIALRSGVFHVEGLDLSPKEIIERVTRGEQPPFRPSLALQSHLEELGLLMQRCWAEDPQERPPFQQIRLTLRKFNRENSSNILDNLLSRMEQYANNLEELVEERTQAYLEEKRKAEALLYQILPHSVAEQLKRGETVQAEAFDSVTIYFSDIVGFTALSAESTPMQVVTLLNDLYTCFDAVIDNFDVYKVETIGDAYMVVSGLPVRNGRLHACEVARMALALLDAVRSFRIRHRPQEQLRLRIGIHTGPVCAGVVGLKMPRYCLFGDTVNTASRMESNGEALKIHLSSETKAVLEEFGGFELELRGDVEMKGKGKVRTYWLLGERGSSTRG
Chain of human natriuretic peptide receptor-C (NPR-C) (human) (P17342 27-541): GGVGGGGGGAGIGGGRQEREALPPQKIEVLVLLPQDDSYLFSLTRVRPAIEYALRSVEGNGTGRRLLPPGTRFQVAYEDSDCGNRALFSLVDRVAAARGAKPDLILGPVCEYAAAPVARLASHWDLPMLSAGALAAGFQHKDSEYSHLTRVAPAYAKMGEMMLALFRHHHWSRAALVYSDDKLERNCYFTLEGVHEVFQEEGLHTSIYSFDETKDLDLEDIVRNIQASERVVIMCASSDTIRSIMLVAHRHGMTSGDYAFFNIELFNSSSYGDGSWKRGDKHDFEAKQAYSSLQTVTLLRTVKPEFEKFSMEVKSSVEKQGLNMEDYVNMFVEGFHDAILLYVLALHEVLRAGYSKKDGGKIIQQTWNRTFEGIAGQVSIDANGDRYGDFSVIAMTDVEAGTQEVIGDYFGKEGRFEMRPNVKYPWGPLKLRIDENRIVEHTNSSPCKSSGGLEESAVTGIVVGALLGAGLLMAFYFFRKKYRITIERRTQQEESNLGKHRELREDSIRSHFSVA
Chain of human natriuretic peptide receptor-B (NPR-B) (human) (P20594 23-1047): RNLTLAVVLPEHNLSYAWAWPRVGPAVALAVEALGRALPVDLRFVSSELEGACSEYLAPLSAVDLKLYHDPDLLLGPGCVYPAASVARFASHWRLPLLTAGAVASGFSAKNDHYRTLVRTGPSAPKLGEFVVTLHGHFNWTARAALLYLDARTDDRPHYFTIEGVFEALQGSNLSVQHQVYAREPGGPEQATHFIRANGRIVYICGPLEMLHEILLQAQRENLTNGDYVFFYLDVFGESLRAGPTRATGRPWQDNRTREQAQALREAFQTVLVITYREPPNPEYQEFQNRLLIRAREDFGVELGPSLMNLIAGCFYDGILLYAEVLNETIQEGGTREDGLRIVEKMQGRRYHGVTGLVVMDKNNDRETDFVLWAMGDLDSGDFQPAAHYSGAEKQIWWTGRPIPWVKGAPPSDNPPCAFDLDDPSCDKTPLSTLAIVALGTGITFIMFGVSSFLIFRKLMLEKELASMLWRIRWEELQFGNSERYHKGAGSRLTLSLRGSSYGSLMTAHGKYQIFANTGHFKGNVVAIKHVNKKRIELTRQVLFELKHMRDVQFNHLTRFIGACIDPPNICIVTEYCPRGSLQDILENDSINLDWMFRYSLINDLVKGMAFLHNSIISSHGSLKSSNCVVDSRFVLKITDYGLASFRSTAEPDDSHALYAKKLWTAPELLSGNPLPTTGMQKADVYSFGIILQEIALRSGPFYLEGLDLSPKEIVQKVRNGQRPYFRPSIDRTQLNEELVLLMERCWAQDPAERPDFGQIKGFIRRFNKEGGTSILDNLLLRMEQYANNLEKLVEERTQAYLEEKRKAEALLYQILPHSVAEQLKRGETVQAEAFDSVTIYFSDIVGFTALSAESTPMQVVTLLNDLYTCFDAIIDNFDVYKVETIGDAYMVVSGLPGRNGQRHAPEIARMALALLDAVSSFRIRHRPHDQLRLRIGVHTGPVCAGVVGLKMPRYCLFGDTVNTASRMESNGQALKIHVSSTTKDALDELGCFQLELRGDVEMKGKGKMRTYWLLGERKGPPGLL

What does the source list for “human brain natriuretic peptide (hBNP) (ligand)”?
pKi [1]: 8.52; pKi [2]: 9.15; cGMP generation in HEK293 cells expressing the receptor, EC50 [3]: 2 nM; cGMP generation in HEK293 cells expressing the receptor, Emax [3]: 96 % hANP; cGMP generation in HEK293 cells expressing the receptor (up to 10 µM), Emax [4]: 9 % hCNP

With “PL-3994 (Hept-cyclo(Cys-His-Phe-D-Ala-Gly-Arg-D-Nle-Asp-Arg-Ile-Ser-Cys)-Tyr-[Arg mimetic]-NH2) (peptide)” as the substance, how does the pKi [5] read?
The pKi was 5.38.
